According to the supplement of paper PMC9112550, “Optimization of the antimicrobial peptide Bac7 by deep mutational scanning” (BMC Biology, 2022):

system: Escherichia coli TOP10; test: shrunken log2 fold change of peptide-encoding DNA abundance (4.5 h post-induction vs induction); higher = less antimicrobial activity (less host growth inhibition); details: time post-induction: 4.5 h; library: site-saturation at positions 5, 18, 19, 20
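Note: peptides expressed intracellularly from a pBAD plasmid library in pooled LB shake-flask culture, induced with 0.3% L-arabinose, DNA abundance read by NGS, three biological replicates, DESeq2 with apeglm shrinkage.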

Sequence | shrunken log2 fold change
RRIRQRPPRLPRPRPRPEVPPRP | -0.00133
RRIRQRPPRLPRPRPRPEVQPRP | -0.0138
RRIRQRPPRLPRPRPRPEWHPRP | 0.33
RRIRQRPPRLPRPRPRPEWPPRP | -0.0954
RRIRQRPPRLPRPRPRPEYCPRP | -0.0411
RRIRQRPPRLPRPRPRPFEFPRP | -0.109
RRIRQRPPRLPRPRPRPFESPRP | -0.00719
RRIRQRPPRLPRPRPRPFEYPRP | -0.0368
RRIRQRPPRLPRPRPRPFGIPRP | -0.138
RRIRQRPPRLPRPRPRPFGTPRP | -0.1
RRIRQRPPRLPRPRPRPFIHPRP | -0.876
RRIRQRPPRLPRPRPRPFIIPRP | 0.043
RRIRQRPPRLPRPRPRPFIYPRP | -0.372
RRIRQRPPRLPRPRPRPFKAPRP | -0.059
RRIRQRPPRLPRPRPRPFLQPRP | -0.194
RRIRQRPPRLPRPRPRPFMKPRP | -0.0158
RRIRQRPPRLPRPRPRPFMQPRP | -0.259
RRIRQRPPRLPRPRPRPFNGPRP | -0.3
RRIRQRPPRLPRPRPRPFNSPRP | -0.3
RRIRQRPPRLPRPRPRPFPSPRP | -0.0654
RRIRQRPPRLPRPRPRPFQLPRP | -0.00805
RRIRQRPPRLPRPRPRPFRDPRP | -0.117
RRIRQRPPRLPRPRPRPFRGPRP | 0.113
RRIRQRPPRLPRPRPRPFRPPRP | -0.303
RRIRQRPPRLPRPRPRPFSFPRP | -0.272

Sequence | shrunken log2 fold change
RRIRQRPPRLPRPRPRPFTFPRP | -0.249
RRIRQRPPRLPRPRPRPFTQPRP | -0.0608
RRIRQRPPRLPRPRPRPFWFPRP | 0.0862
RRIRQRPPRLPRPRPRPFYGPRP | -0.00903
RRIRQRPPRLPRPRPRPGCPPRP | 0.414
RRIRQRPPRLPRPRPRPGEEPRP | 0.0331
RRIRQRPPRLPRPRPRPGEGPRP | 0.00168
RRIRQRPPRLPRPRPRPGERPRP | 0.0849
RRIRQRPPRLPRPRPRPGFKPRP | -0.534
RRIRQRPPRLPRPRPRPGFSPRP | 0.00737
RRIRQRPPRLPRPRPRPGHHPRP | 0.245
RRIRQRPPRLPRPRPRPGLYPRP | 0.224
RRIRQRPPRLPRPRPRPGMEPRP | 0.0952
RRIRQRPPRLPRPRPRPGMKPRP | -0.0822
RRIRQRPPRLPRPRPRPGMPPRP | -0.0642
RRIRQRPPRLPRPRPRPGMSPRP | 0.285
RRIRQRPPRLPRPRPRPGNAPRP | 0.322
RRIRQRPPRLPRPRPRPGNEPRP | 0.177
RRIRQRPPRLPRPRPRPGRVPRP | 0.422
RRIRQRPPRLPRPRPRPGSCPRP | 0.192
RRIRQRPPRLPRPRPRPGSFPRP | -0.0531
RRIRQRPPRLPRPRPRPGVPPRP | 0.154
RRIRQRPPRLPRPRPRPGYEPRP | 0.00854
RRIRQRPPRLPRPRPRPGYGPRP | -0.131
RRIRQRPPRLPRPRPRPGYMPRP | -0.131

Sequence | shrunken log2 fold change
RRIRQRPPRLPRPRPRPGYNPRP | -0.185
RRIRQRPPRLPRPRPRPGYRPRP | -0.354
RRIRQRPPRLPRPRPRPGYSPRP | -0.00603
RRIRQRPPRLPRPRPRPHAGPRP | -0.084
RRIRQRPPRLPRPRPRPHCDPRP | 0.0241
RRIRQRPPRLPRPRPRPHEDPRP | 0.0107
RRIRQRPPRLPRPRPRPHEHPRP | 0.0439
RRIRQRPPRLPRPRPRPHEYPRP | 0.0128
RRIRQRPPRLPRPRPRPHFIPRP | -0.328
RRIRQRPPRLPRPRPRPHFWPRP | -0.0983
RRIRQRPPRLPRPRPRPHHPPRP | 0.00343
RRIRQRPPRLPRPRPRPHHTPRP | -0.0489
RRIRQRPPRLPRPRPRPHHWPRP | -0.0737
RRIRQRPPRLPRPRPRPHKPPRP | -0.0272
RRIRQRPPRLPRPRPRPHLTPRP | -0.016
RRIRQRPPRLPRPRPRPHMDPRP | -1.07
RRIRQRPPRLPRPRPRPHMLPRP | -1.18
RRIRQRPPRLPRPRPRPHPGPRP | 0.125
RRIRQRPPRLPRPRPRPHRMPRP | -0.373
RRIRQRPPRLPRPRPRPHSCPRP | -0.194
RRIRQRPPRLPRPRPRPHTHPRP | -0.342
RRIRQRPPRLPRPRPRPHTRPRP | 0.107
RRIRQRPPRLPRPRPRPHVWPRP | 0.03
RRIRQRPPRLPRPRPRPHYQPRP | -0.0204
RRIRQRPPRLPRPRPRPHYTPRP | -0.509

Sequence | shrunken log2 fold change
RRIRQRPPRLPRPRPRPIAKPRP | -0.00229
RRIRQRPPRLPRPRPRPIAYPRP | -0.133
RRIRQRPPRLPRPRPRPICNPRP | -0.211
RRIRQRPPRLPRPRPRPIEPPRP | -0.0381
RRIRQRPPRLPRPRPRPIGKPRP | 0.0819
RRIRQRPPRLPRPRPRPIINPRP | -0.235
RRIRQRPPRLPRPRPRPIKHPRP | -0.12
RRIRQRPPRLPRPRPRPILDPRP | 0.0277
RRIRQRPPRLPRPRPRPILMPRP | 0.0271
RRIRQRPPRLPRPRPRPILPPRP | 0.0747
RRIRQRPPRLPRPRPRPINCPRP | -0.384
RRIRQRPPRLPRPRPRPIRDPRP | -0.161
RRIRQRPPRLPRPRPRPISMPRP | 0.0161
RRIRQRPPRLPRPRPRPIVKPRP | -0.108
RRIRQRPPRLPRPRPRPIYFPRP | -0.115
RRIRQRPPRLPRPRPRPKANPRP | 0.0666
RRIRQRPPRLPRPRPRPKDIPRP | 0.0266
RRIRQRPPRLPRPRPRPKENPRP | 0.168
RRIRQRPPRLPRPRPRPKEPPRP | 0.0201
RRIRQRPPRLPRPRPRPKETPRP | 0.00762
RRIRQRPPRLPRPRPRPKGLPRP | 0.0353
RRIRQRPPRLPRPRPRPKHCPRP | 0.0753
RRIRQRPPRLPRPRPRPKKWPRP | -0.0403
RRIRQRPPRLPRPRPRPKMAPRP | 0.12
RRIRQRPPRLPRPRPRPKNEPRP | -0.136

Sequence | shrunken log2 fold change
RRIRQRPPRLPRPRPRPKQGPRP | 0.401
RRIRQRPPRLPRPRPRPKQRPRP | 0.0443
RRIRQRPPRLPRPRPRPKQSPRP | -0.0143
RRIRQRPPRLPRPRPRPKTDPRP | -0.326
RRIRQRPPRLPRPRPRPKWKPRP | -0.0193
RRIRQRPPRLPRPRPRPKYMPRP | -0.386
RRIRQRPPRLPRPRPRPLDWPRP | 0.099
RRIRQRPPRLPRPRPRPLEAPRP | 0.225
RRIRQRPPRLPRPRPRPLEKPRP | -0.0015
RRIRQRPPRLPRPRPRPLEPPRP | -0.227
RRIRQRPPRLPRPRPRPLFNPRP | -0.367
RRIRQRPPRLPRPRPRPLFQPRP | 0.866
RRIRQRPPRLPRPRPRPLGQPRP | 0.125
RRIRQRPPRLPRPRPRPLHSPRP | -0.295
RRIRQRPPRLPRPRPRPLIIPRP | -0.781
RRIRQRPPRLPRPRPRPLKGPRP | -0.272
RRIRQRPPRLPRPRPRPLKYPRP | -0.0559
RRIRQRPPRLPRPRPRPLLNPRP | -0.29
RRIRQRPPRLPRPRPRPLMHPRP | -0.00724
RRIRQRPPRLPRPRPRPLNEPRP | -0.136
RRIRQRPPRLPRPRPRPLNKPRP | -0.503
RRIRQRPPRLPRPRPRPLNMPRP | -0.423
RRIRQRPPRLPRPRPRPLPDPRP | 0.0466
RRIRQRPPRLPRPRPRPLPLPRP | -0.287
RRIRQRPPRLPRPRPRPLTFPRP | -0.0576

Sequence | shrunken log2 fold change
RRIRQRPPRLPRPRPRPLTMPRP | 0.00947
RRIRQRPPRLPRPRPRPLVEPRP | -0.0628
RRIRQRPPRLPRPRPRPLVTPRP | -0.122
RRIRQRPPRLPRPRPRPLVYPRP | -0.737
RRIRQRPPRLPRPRPRPLWNPRP | -0.245
RRIRQRPPRLPRPRPRPLYMPRP | -0.198
RRIRQRPPRLPRPRPRPLYSPRP | -0.649
RRIRQRPPRLPRPRPRPMAGPRP | 0.132
RRIRQRPPRLPRPRPRPMATPRP | 0.0329
RRIRQRPPRLPRPRPRPMCCPRP | 0.0301
RRIRQRPPRLPRPRPRPMCDPRP | 0.00628
RRIRQRPPRLPRPRPRPMCHPRP | -0.136
RRIRQRPPRLPRPRPRPMFIPRP | -0.129
RRIRQRPPRLPRPRPRPMFQPRP | -0.467
RRIRQRPPRLPRPRPRPMFSPRP | 0.0442
RRIRQRPPRLPRPRPRPMGYPRP | -0.655
RRIRQRPPRLPRPRPRPMIFPRP | -0.0627
RRIRQRPPRLPRPRPRPMIIPRP | 0.0698
RRIRQRPPRLPRPRPRPMLFPRP | -0.0627
RRIRQRPPRLPRPRPRPMLSPRP | -0.0514
RRIRQRPPRLPRPRPRPMLTPRP | -0.185
RRIRQRPPRLPRPRPRPMNGPRP | -0.0825
RRIRQRPPRLPRPRPRPMNNPRP | -0.2
RRIRQRPPRLPRPRPRPMNRPRP | -0.275
RRIRQRPPRLPRPRPRPMPCPRP | -0.00136
